This note sets out measurements from patent US20120122783A1 (INDIANA UNIVERSITY RESEARCH AND TECHOLOGY, published 2012).

The target of experiment [1] is T1, human glucagon receptor (human, UniProt P47871 26-477). The experiment in a line: cell-based or functional assay.
The target of experiment [2] is T1, human glucagon receptor. The experiment in a line: SPA competition vs 125I-glucagon, receptor membranes.
The next experiment deals with human GLP-1 receptor (human, UniProt P43220 24-463). Nature of the experiment: cell-based or functional assay.
Experiment [3] has as its target T1, human glucagon receptor. The experiment in a line: cell-based or functional assay. This is another data set of the same source.
Experiment [4] deals with T1, human glucagon receptor. The experiment in a line: cell-based or functional assay. The source holds these as a separate data set.
Experiment [5] addresses T1, human glucagon receptor. The experiment in a line: cell-based or functional assay. This is another data set of the same source.
For experiment [6], the target named is T1, human glucagon receptor. The experiment in a line: cell-based or functional assay. The source holds these as a separate data set.
The target in experiment [7] is T1, human glucagon receptor. The experiment in a line: cell-based or functional assay. This is another data set of the same source.
Experiment [8] has as its target T1, human glucagon receptor. The experiment in a line: cell-based or functional assay. This is another data set of the same source.
In experiment [9] the target is T1, human glucagon receptor. The experiment in a line: cell-based or functional assay. The source holds these as a separate data set.
Experiment [10] concerns the target T1, human glucagon receptor. Nature of the experiment: cell-based or functional assay. The source holds these as a separate data set.

Where two headings read alike, the source gives them in different places. Square brackets hold non-standard residues; d marks the D form. Ends that are not written are not given here. Abu(4-SO3H) = N[C@@H](CCS(=O)(=O)O)C(=O)O; PhLac = O=C(O)[C@@H](O)Cc1ccccc1; PLA = not defined here

T1 sequence (P47871 26-477): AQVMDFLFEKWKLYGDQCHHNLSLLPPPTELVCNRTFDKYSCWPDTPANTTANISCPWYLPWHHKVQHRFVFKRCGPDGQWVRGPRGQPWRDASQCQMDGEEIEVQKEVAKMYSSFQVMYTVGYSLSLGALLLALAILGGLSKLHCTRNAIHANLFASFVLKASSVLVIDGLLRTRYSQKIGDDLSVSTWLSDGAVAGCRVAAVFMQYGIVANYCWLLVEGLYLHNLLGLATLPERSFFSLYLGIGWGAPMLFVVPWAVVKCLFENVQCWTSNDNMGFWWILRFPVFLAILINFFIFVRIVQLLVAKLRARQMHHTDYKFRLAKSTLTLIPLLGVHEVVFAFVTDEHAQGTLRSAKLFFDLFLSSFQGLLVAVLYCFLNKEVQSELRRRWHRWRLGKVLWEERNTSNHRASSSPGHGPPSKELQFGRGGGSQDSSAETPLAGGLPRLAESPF

A word on the IC50: it is the concentration that inhibits the measured activity by half. In turn, “[desHis^1, desPhe^6] Glucagon-NH2 (peptide)” had a cAMP Induction EC50 with human glucagon receptor [1] of 1180 nM. The molecule further gave an IC50 with human glucagon receptor [2] of 130 nM. Consider Oxyntomodulin KRNR (peptide), for which the cAMP Induction EC50 with human glucagon receptor [1] turned out to be 2.77 nM; with human GLP-1 receptor, 3.21 nM. Turning to [PhLac]TS[Abu(4-SO3H)]YSKYLDSRRAQDFVQWLMNT-NH2 [[PLA6, hCys(SO3)9]Glucagon(aa6-29)-NH2], in the experiment with human glucagon receptor [3], the “IC50 (nM) (cAMP, inhibit Glucagon) 0.1 nM or 0.2 nM” value was 40.2 nM. As to SQGTFTS[Abu(4-SO3H)]YSKYLDSRRAQDFVQWLMNT-NH2 [[hCys^9(SO3H)]Glucagon(aa2-29)-NH2], the “cAMP IC50” value with human glucagon receptor [4] was determined as 147 nM.

B1: [hCys^9(SO3H)]Glucagon(aa4-29)-NH2 (peptide)
peptide: GTFTS[Abu(4-SO3H)]YSKYLDSRRAQDFVQWLMNT-NH2
modifications: N-terminus assumed
SMILES: CSCC[C@H](NC(=O)[C@H](CC(C)C)NC(=O)[C@H](Cc1c[nH]c2ccccc12)NC(=O)[C@H](CCC(N)=O)NC(=O)[C@@H](NC(=O)[C@H](Cc1ccccc1)NC(=O)[C@H](CC(=O)O)NC(=O)[C@H](CCC(N)=O)NC(=O)[C@H](C)NC(=O)[C@H](CCCNC(=N)N)NC(=O)[C@H](CCCNC(=N)N)NC(=O)[C@H](CO)NC(=O)[C@H](CC(=O)O)NC(=O)[C@H](CC(C)C)NC(=O)[C@H](Cc1ccc(O)cc1)NC(=O)[C@H](CCCCN)NC(=O)[C@H](CO)NC(=O)[C@H](Cc1ccc(O)cc1)NC(=O)[C@H](CCS(=O)(=O)O)NC(=O)[C@H](CO)NC(=O)[C@@H](NC(=O)[C@H](Cc1ccccc1)NC(=O)[C@@H](NC(=O)CN)[C@@H](C)O)[C@@H](C)O)C(C)C)C(=O)N[C@@H](CC(N)=O)C(=O)N[C@H](C(N)=O)[C@@H](C)O
As for B1, in the experiment with human glucagon receptor [4], the “cAMP IC50” value worked out at 68.4 nM. FTS[Abu(4-SO3H)]YSKYLDSRRAQDFVQWLMNT-NH2 [[hCys^9(SO3H)]Glucagon(aa6-29)-NH2]: the “cAMP IC50” value in the experiment with human glucagon receptor [4] and with human glucagon receptor [5] was 133 nM each time. Turning to HSQGTFTSDYSRYLDSRRAQDFVQWLMNK [Glucagon R12 K29], the figures for the “cAMP Induction EC50” value with human glucagon receptor [6] and in the experiment with human GLP-1 receptor were 0.81 nM and 0.41 nM, respectively.

B2: [hCys^9(SO3H)]Glucagon(aa5-29)-NH2 (peptide)
peptide: TFTS[Abu(4-SO3H)]YSKYLDSRRAQDFVQWLMNT-NH2
modifications: N-terminus assumed
SMILES: CSCC[C@H](NC(=O)[C@H](CC(C)C)NC(=O)[C@H](Cc1c[nH]c2ccccc12)NC(=O)[C@H](CCC(N)=O)NC(=O)[C@@H](NC(=O)[C@H](Cc1ccccc1)NC(=O)[C@H](CC(=O)O)NC(=O)[C@H](CCC(N)=O)NC(=O)[C@H](C)NC(=O)[C@H](CCCNC(=N)N)NC(=O)[C@H](CCCNC(=N)N)NC(=O)[C@H](CO)NC(=O)[C@H](CC(=O)O)NC(=O)[C@H](CC(C)C)NC(=O)[C@H](Cc1ccc(O)cc1)NC(=O)[C@H](CCCCN)NC(=O)[C@H](CO)NC(=O)[C@H](Cc1ccc(O)cc1)NC(=O)[C@H](CCS(=O)(=O)O)NC(=O)[C@H](CO)NC(=O)[C@@H](NC(=O)[C@H](Cc1ccccc1)NC(=O)[C@@H](N)[C@@H](C)O)[C@@H](C)O)C(C)C)C(=O)N[C@@H](CC(N)=O)C(=O)N[C@H](C(N)=O)[C@@H](C)O
For B2, the “cAMP IC50” value with human glucagon receptor [4] was 98.3 nM.

B3: [PLA^4, E^9]Glucagon(aa4-29)-NH2 (peptide)
peptide: [PhLac]TFTSEYSKYLDSRRAQDFVQWLMNT-NH2
modifications: N-terminus assumed
SMILES: CSCC[C@H](NC(=O)[C@H](CC(C)C)NC(=O)[C@H](Cc1c[nH]c2ccccc12)NC(=O)[C@H](CCC(N)=O)NC(=O)[C@@H](NC(=O)[C@H](Cc1ccccc1)NC(=O)[C@H](CC(=O)O)NC(=O)[C@H](CCC(N)=O)NC(=O)[C@H](C)NC(=O)[C@H](CCCNC(=N)N)NC(=O)[C@H](CCCNC(=N)N)NC(=O)[C@H](CO)NC(=O)[C@H](CC(=O)O)NC(=O)[C@H](CC(C)C)NC(=O)[C@H](Cc1ccc(O)cc1)NC(=O)[C@H](CCCCN)NC(=O)[C@H](CO)NC(=O)[C@H](Cc1ccc(O)cc1)NC(=O)[C@H](CCC(=O)O)NC(=O)[C@H](CO)NC(=O)[C@@H](NC(=O)[C@H](Cc1ccccc1)NC(=O)[C@@H](NC(=O)[C@@H](O)Cc1ccccc1)[C@@H](C)O)[C@@H](C)O)C(C)C)C(=O)N[C@@H](CC(N)=O)C(=O)N[C@H](C(N)=O)[C@@H](C)O
Take B3: the “IC50 (nM) (cAMP, inhibit 0.8 mM Glucagon)” value with human glucagon receptor [7] was 84.4 nM.

As to [PhLac]TSEYSKYLDSRRAQDFVQWLMNT-NH2 [[PLA6, E9]Glucagon(aa6-29)-NH2], the “IC50 (nM) (cAMP, inhibit 0.8 mM Glucagon)” value in the experiment with human glucagon receptor [7] came out at 64.8 nM. Besides, the “Glucagon antagonism IC50(nM, inhibit 0.5 nM G)” value with human glucagon receptor [8] stood at 23.8 nM. Regarding GTFTSEYSKYLDSRRAQDFVQWLMNT-NH2 [[Glu^9]Glucagon(aa4-29)-NH2], the “cAMP Inhibition IC50” value in the experiment with human glucagon receptor [9] turned out to be 128 nM. Besides, in the experiment with human glucagon receptor [10], the “cAMP (I/A)50, inhibition index” value amounted to 1380 ratio.

As to [PLA]TSEYSKYLDSRRAQDFVQWLMNTGPSSGAPPPS-NH2 (reading uncertain) [[PLA6, E9]Glucagon(aa6-29+CEX)-NH2], the “IC50 (nM) (cAMP, inhibit Glucagon) 0.1 nM or 0.2 nM” value in the experiment with human glucagon receptor [3] was found to be 24.8 nM. FTSEYSKYLDSRRAQDFVQWLMNT-NH2 [[Glu^9]Glucagon(aa6-29)-NH2]: the “cAMP Inhibition IC50” value with human glucagon receptor [9] came to 97 nM. Further, the “cAMP (I/A)50, inhibition index” value with human glucagon receptor [10] was determined as 486 ratio. Also, in the experiment with human glucagon receptor [5], the “cAMP IC50” value was determined as 97.2 nM.

B4: [PLA6, D9, D28]Glucagon(aa6-29)-NH2 (peptide)
peptide: FTSDYSKYLDSRRAQDFVQWLMDT
modifications: N-terminal residue is phenyl lactic acid (PLA) in place of Phe 6; C-terminal amide
On to B4, for which the “IC50 (nM) (cAMP, inhibit Glucagon) 0.1 nM or 0.2 nM” value in the experiment with human glucagon receptor [3] worked out at 1.32 nM. For the same molecule, the “Glucagon antagonism IC50(nM, inhibit 0.5 nM G)” value with human glucagon receptor [8] is 9.03 nM.

B5: [PLA6, D9]Glucagon(aa6-29)-NH2 (peptide)
peptide: [PhLac]TSDYSKYLDSRRAQDFVQWLMNT-NH2
modifications: N-terminus assumed
SMILES: CSCC[C@H](NC(=O)[C@H](CC(C)C)NC(=O)[C@H](Cc1c[nH]c2ccccc12)NC(=O)[C@H](CCC(N)=O)NC(=O)[C@@H](NC(=O)[C@H](Cc1ccccc1)NC(=O)[C@H](CC(=O)O)NC(=O)[C@H](CCC(N)=O)NC(=O)[C@H](C)NC(=O)[C@H](CCCNC(=N)N)NC(=O)[C@H](CCCNC(=N)N)NC(=O)[C@H](CO)NC(=O)[C@H](CC(=O)O)NC(=O)[C@H](CC(C)C)NC(=O)[C@H](Cc1ccc(O)cc1)NC(=O)[C@H](CCCCN)NC(=O)[C@H](CO)NC(=O)[C@H](Cc1ccc(O)cc1)NC(=O)[C@H](CC(=O)O)NC(=O)[C@H](CO)NC(=O)[C@@H](NC(=O)[C@@H](O)Cc1ccccc1)[C@@H](C)O)C(C)C)C(=O)N[C@@H](CC(N)=O)C(=O)N[C@H](C(N)=O)[C@@H](C)O
On to B5, for which the “IC50 (nM) (cAMP, inhibit Glucagon) 0.1 nM or 0.2 nM” value with human glucagon receptor [3] turned out to be 6.9 nM.

B6: [PLA^5, E^9]Glucagon(aa5-29)-NH2 (peptide)
peptide: [PhLac]FTSEYSKYLDSRRAQDFVQWLMNT-NH2
modifications: N-terminus assumed
SMILES: CSCC[C@H](NC(=O)[C@H](CC(C)C)NC(=O)[C@H](Cc1c[nH]c2ccccc12)NC(=O)[C@H](CCC(N)=O)NC(=O)[C@@H](NC(=O)[C@H](Cc1ccccc1)NC(=O)[C@H](CC(=O)O)NC(=O)[C@H](CCC(N)=O)NC(=O)[C@H](C)NC(=O)[C@H](CCCNC(=N)N)NC(=O)[C@H](CCCNC(=N)N)NC(=O)[C@H](CO)NC(=O)[C@H](CC(=O)O)NC(=O)[C@H](CC(C)C)NC(=O)[C@H](Cc1ccc(O)cc1)NC(=O)[C@H](CCCCN)NC(=O)[C@H](CO)NC(=O)[C@H](Cc1ccc(O)cc1)NC(=O)[C@H](CCC(=O)O)NC(=O)[C@H](CO)NC(=O)[C@@H](NC(=O)[C@H](Cc1ccccc1)NC(=O)[C@@H](O)Cc1ccccc1)[C@@H](C)O)C(C)C)C(=O)N[C@@H](CC(N)=O)C(=O)N[C@H](C(N)=O)[C@@H](C)O
On to B6, for which the “IC50 (nM) (cAMP, inhibit 0.8 mM Glucagon)” value in the experiment with human glucagon receptor [7] worked out at 328 nM.
